Reference: patent US20230295327A1 (KANAPH THERAPEUTICS, published 2023)

T1: human CD20 on Raji and Ramos cells (human, UniProt P11836 1-297)
T1 sequence (looked up): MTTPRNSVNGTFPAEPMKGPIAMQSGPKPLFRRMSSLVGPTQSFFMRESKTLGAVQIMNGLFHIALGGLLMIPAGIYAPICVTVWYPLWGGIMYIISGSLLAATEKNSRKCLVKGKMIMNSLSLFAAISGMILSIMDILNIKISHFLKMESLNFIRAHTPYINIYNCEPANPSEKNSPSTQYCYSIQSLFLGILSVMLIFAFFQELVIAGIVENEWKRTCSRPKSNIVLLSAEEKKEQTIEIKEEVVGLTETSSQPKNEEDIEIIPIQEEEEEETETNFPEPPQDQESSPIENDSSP

B1: Rituximab (anti-hu CD20 monoclonal antibody) (antibody, human IgG1, kappa, V domains shown)
VH: QVQLQQPGAELVKPGASVKMSCKASGYTFTSYNMHWVKQTPGRGLEWIGAIYPGNGDTSYNQKFKGKATLTADKSSSTAYMQLSSLTSEDSAVYYCARSTYYGGDWYFNVWGAGTTVTVSA
VL: QIVLSQSPAILSASPGEKVTMTCRASSSVSYIHWFQQKPGSSPKPWIYATSNLASGVPVRFSGSGSGTSYSLTISRVEAEDAATYYCQQWTSNPPTFGGGTKLEIKR
B2: T2.01 (anti-hu CD20/hu IL-12, hu IgG1) (bispecific antibody)
heavy: not shown
light: QIVLSQSPAILSASPGEKVTMTCRASSSVSYIHWFQQKPGSSPKPWIYATSNLASGVPVRFSGSGSGTSYSLTISRVEAEDAATYYCQQWTSNPPTFGGGTKLEIKRTVAAPSVFIFPPSDEQLKSGTASVVCLLNNFYPREAKVQWKVDNALQSGNSQESVTEQDSKDSTYSLSSTLTLSKADYEKHKVYACEVTHQGLSSPVTKSFNRGEC
chain: not shown
B3: T2.02 (anti-hu CD20/hu IL-12 mut1, hu IgG1) (bispecific antibody)
heavy: not shown
light: B2 light
chain: not shown

Key:
[1] = target: T1, human CD20 on Raji and Ramos cells; test: cell-based or functional assay
[2] = target: IL-12 receptor of human T cells (human, UniProt P42701 24-662; Q99665 24-862); test: cell-based or functional assay
Chain of IL-12 receptor of human T cells (Q99665 24-862, chain 2 of 2, other chains not shown): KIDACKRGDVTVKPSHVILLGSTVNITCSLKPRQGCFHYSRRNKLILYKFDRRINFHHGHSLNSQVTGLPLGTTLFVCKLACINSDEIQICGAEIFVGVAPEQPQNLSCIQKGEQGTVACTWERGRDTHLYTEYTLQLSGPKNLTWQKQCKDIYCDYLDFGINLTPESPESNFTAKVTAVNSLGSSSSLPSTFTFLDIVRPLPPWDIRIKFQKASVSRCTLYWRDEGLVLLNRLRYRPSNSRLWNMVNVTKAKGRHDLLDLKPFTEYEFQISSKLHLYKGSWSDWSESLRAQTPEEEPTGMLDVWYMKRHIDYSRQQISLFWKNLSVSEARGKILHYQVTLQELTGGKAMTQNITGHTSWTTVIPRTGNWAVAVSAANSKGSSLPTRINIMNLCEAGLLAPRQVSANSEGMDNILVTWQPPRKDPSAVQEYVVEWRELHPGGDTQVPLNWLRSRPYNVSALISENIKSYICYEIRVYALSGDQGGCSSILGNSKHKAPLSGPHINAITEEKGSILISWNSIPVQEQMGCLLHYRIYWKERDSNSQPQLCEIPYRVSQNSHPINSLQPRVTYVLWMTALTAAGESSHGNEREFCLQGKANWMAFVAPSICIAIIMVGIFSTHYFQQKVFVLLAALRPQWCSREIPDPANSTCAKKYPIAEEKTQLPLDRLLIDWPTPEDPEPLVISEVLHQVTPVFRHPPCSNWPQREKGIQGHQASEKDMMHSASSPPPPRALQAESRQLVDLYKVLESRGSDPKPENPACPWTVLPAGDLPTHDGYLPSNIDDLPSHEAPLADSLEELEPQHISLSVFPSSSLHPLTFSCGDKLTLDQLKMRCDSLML

Row | Binder | ADCC Reporter Bioassay on Raji target cells, 50% effective concentration (EC50) [1] [ng/mL] | p-STAT4 (Tyr693) AlphaLISA in activated human T cells, EC50 [2] [ng/mL]
1 | B1 | 31100 | –
2 | B2 | – | 0.555
3 | B3 | – | 1.55
